From patent US20220389097A1 (Genentech, published 2022)

T1: human TREM2-Fc (human, UniProt Q9NZC2 19-174)
T1 construct: also called hTREM2; not shown: Fc part (captured by anti-human IgG1 Fc or protein A)
T1 sequence: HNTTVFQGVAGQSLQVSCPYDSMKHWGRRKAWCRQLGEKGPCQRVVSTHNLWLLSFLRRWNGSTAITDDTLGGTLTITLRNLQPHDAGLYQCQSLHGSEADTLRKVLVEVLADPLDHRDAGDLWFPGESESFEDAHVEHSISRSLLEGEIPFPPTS

T2: cynomolgus TREM2-Fc (cynomolgus monkey, UniProt A0A2K5UY34 49-204)
T2 construct: also called cyno TREM2; not shown: Fc part
T2 sequence: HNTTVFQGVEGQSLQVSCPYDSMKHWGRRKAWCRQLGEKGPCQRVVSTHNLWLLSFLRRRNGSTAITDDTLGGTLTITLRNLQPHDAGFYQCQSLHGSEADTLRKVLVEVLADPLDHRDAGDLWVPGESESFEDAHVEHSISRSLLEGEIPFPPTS

T3: soluble monomeric human TREM2 (human, UniProt Q9NZC2 19-174, limits assumed)
T3 construct: Not the same as shed sTREM2; also called soluble monomeric TREM2
T3 sequence: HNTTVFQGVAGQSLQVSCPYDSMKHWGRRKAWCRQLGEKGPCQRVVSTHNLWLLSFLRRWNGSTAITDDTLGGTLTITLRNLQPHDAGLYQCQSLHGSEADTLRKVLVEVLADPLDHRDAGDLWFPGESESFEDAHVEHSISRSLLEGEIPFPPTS


Legend:
human TREM2-Fc [1] = target: T1, human TREM2-Fc; test: SPR (Biacore T200), 37 C; TREM2-Fc on protein A chip, soluble Fab
Procedure: (§1) Affinity of h3.10C2.v1 (FIGS. 9A-B) for human and cynomolgus TREM2 was determined by SPR in a Biacore™ T200 apparatus in two formats, both at 37° C. In one format TREM2-Fc was immobilized on protein A chips and soluble anti-TREM2 Fab fragments used as ligands. In the second format, anti-TREM2 IgG was immobilized on anti-CH1 Biacore™ chips and used soluble monomeric TREM2 as ligand.

cynomolgus TREM2-Fc [2] = target: T2, cynomolgus TREM2-Fc; test: as above
Procedure: as §1

human TREM2-Fc [3] = target: T1, human TREM2-Fc; test: SPR (Biacore T200), 37 C; TREM2-Fc on anti-human IgG1 Fc chip, Fab in solution
Procedure: (§2) Briefly, clone variants were expressed as Fab fragments and purified by anti-CH1 affinity chromatography followed by size exclusion chromatography. TREM2-Fc antigens were immobilized on anti-human IgG1 Fc Biacore™ chips and soluble Para.09 variant and 3.10C2 clone Fab fragments were bound to immobilized TREM2 at 37° C.

cynomolgus TREM2-Fc [4] = target: T2, cynomolgus TREM2-Fc; test: as above
Procedure: as §2

human TREM2-Fc [5] = target: T1, human TREM2-Fc; test: SPR (Biacore T200), 37 C; TREM2-Fc on protein A chip, Fab in solution
Procedure: The humanized heavy chain variants were tested for affinity by combining the heavy chain variants with the 3.10C2-L1 light chain. These variants were expressed as Fab fragments, purified by protein A chromatography, and tested for affinity for TREM2-Fc coated on a protein A chip with a Biacore™ T200 apparatus.

[6] = target: T3, soluble monomeric human TREM2; test: SPR (Biacore T200), 37 C; IgG on anti-CH1 chip, soluble monomeric TREM2

| Kd (human TREM2-Fc [3]) | koff (human TREM2-Fc [3]) | kon (human TREM2-Fc [3]) | Kd (cynomolgus TREM2-Fc [4]) | koff (cynomolgus TREM2-Fc [4]) | kon (cynomolgus TREM2-Fc [4]) | Binder | further results |
| --- | --- | --- | --- | --- | --- | --- | --- |
| 4.2 pM | 2.7e-05 s⁻¹ | 6.3e+06 M⁻¹ s⁻¹ | 2.5 pM | 1.2e-05 s⁻¹ | 4.8e+06 M⁻¹ s⁻¹ | Para.09 Fab with the 3.27H7 light chain (Fab, V domains shown, Fab fragment; also called Para.09 (3.27H7); Para.09-L27H7) VH: EVQLVETGGSLVQPGKSLRLTCATSGFPFSNVWLHWVRQSPEKHPEWVAHIKAKSDNYATYYAESVKGRFTISRDDSKSSVFLQMNSLKEEDTAIYYCTDILEYWGQGTLVTVSS VL: DVVLTQAPLSVSVTPGESASISCRSSRSLLTSKGITSLYWYLQKPGMSPHLLIYRMSNLASGIPDRFSGSGSETDFTLKISEVEPEDVGVYYCAQFLVYPYTFGAGTKLELK | Kd (human TREM2-Fc [1]): 15 pM; koff (human TREM2-Fc [1]): 3.5e-05 s⁻¹; kon (human TREM2-Fc [1]): 2.3e+06 M⁻¹ s⁻¹; Kd (cynomolgus TREM2-Fc [2]): 18 pM; koff (cynomolgus TREM2-Fc [2]): 4.1e-05 s⁻¹; kon (cynomolgus TREM2-Fc [2]): 2.3e+06 M⁻¹ s⁻¹ |
| 5 pM | 2.8e-05 s⁻¹ | 5.6e+06 M⁻¹ s⁻¹ | 2.4 pM | 8.9e-06 s⁻¹ | 3.8e+06 M⁻¹ s⁻¹ | Para.09 Fab with the 3.18E5 light chain (Fab, V domains shown, also called Para.09 (3.18E5)) VH: EVQLVETGGSLVQPGKSLRLTCATSGFPFSNVWLHWVRQSPEKHPEWVAHIKAKSDNYATYYAESVKGRFTISRDDSKSSVFLQMNSLKEEDTAIYYCTDILEYWGQGTLVTVSS VL: DTVLTQAPLSVSVTPGESASISCRSNKSLLGIRDITSLYWYLQKPGKSPQLLIYRMSNLASGVPDRFSGSGSETDFTLKISEVETEDVGVYYCAQFLRYPYTFGPGTKLELK | – |
| 1.1 pM | 5.8e-06 s⁻¹ | 5.1e+06 M⁻¹ s⁻¹ | 2 pM | 7.9e-06 s⁻¹ | 3.9e+06 M⁻¹ s⁻¹ | Para.09 Fab with the 3.50G1 light chain (Fab, V domains shown, also called Para.09 (3.50G1)) VH: EVQLVETGGSLVQPGKSLRLTCATSGFPFSNVWLHWVRQSPEKHPEWVAHIKAKSDNYATYYAESVKGRFTISRDDSKSSVFLQMNSLKEEDTAIYYCTDILEYWGQGTLVTVSS VL: DTVLTQAPLSVSVTPGESASISCRSNKSLLGIRDITSLYWFLQKPGKSPQLLIYRMSNLASGVPDRFSGSGSETDFTLKISEVETEDVGVYYCAQFLRYPYTFGPGTKLELQ | – |
| 3.8 pM | 2.7e-05 s⁻¹ | 7.1e+06 M⁻¹ s⁻¹ | 1.6 pM | 7.8e-06 s⁻¹ | 4.8e+06 M⁻¹ s⁻¹ | Para.09 Fab with the 3.10C2 light chain (Fab, V domains shown, also called Para.09 (3.10C2)) VH: EVQLVETGGSLVQPGKSLRLTCATSGFPFSNVWLHWVRQSPEKHPEWVAHIKAKSDNYATYYAESVKGRFTISRDDSKSSVFLQMNSLKEEDTAIYYCTDILEYWGQGTLVTVSS VL: DTVLTQAPLSLSVTPGESASISCRSSKSLLGVRDITSLYWYLQKPGKSPQLLIYRMSNLASGVPDRFSGSGSETDFTLKISEVETEDVGVYYCAQFLRYPYTFGPGTKLELK | – |
| – | – | – | – | – | – | 3.10C2-H6/3.10C2-L1 Fab (Fab, V domains shown) VH: EVQLVESGGGLVQPGGSLKLSCATSGFPFSNVWMHWVRQASGKGLEWVAHIKAKSDNYATYYAESVKGRFTISRDDSKNTIYLQMNSLKTEDTAVYYCTGLDYWGQGTTVTVSS VL: DTVLTQSPLSLPVTPGEPASISCRSSKSLLGVRDITSLYWYLQKPGQSPQLLIYRMSNLASGVPDRFSGSGSETDFTLKISRVEAEDVGVYYCAQFLRYPYTFGQGTKVEIK | koff (human TREM2-Fc [5]): 0.0013 s⁻¹; kon (human TREM2-Fc [5]): 210000 M⁻¹ s⁻¹ |
| – | – | – | – | – | – | 3.10C2 IgG (rat variable regions; captured by anti-CH1 or anti-human Fab chips) (antibody, V domains shown, also called parental 3.10C2 clone; 3.10C2 control) VH: EVQLVETGGSLVQPGKSLKLTCATSGFPFSNVWMHWVRQSPEKQLEWIAHIKAKSDNYATYYAESVKGRFTISRDDSKTSIYLQMNSLKEDDTAIYYCTGLDYWGQGVMVTVSS VL: DTVLTQAPLSLSVTPGESASISCRSSKSLLGVRDITSLYWYLQKPGKSPQLLIYRMSNLASGVPDRFSGSGSETDFTLKISEVETEDVGVYYCAQFLRYPYTFGPGTKLELK | Kd [6]: 120 pM; koff [6]: 9.6e-05 s⁻¹; kon [6]: 780000 M⁻¹ s⁻¹ |
